In paper PMC10481361, “Structural insight into G-protein chaperone-mediated maturation of a bacterial adenosylcobalamin-dependent mutase” (The Journal of Biological Chemistry, 2023):

Experiments:
[1] = molecular target: T1, IcmF (isobutyryl-CoA mutase fused) (Cupriavidus metallidurans, UniProt Q1LRY0, Q341A); assay: cryo-EM, […] Å; assay type: binding; details: sample prepared with 500 μM GTP, 2 μM enzyme; GDP modelled at each nucleotide site of the G-protein domain; Mg2+ in chain A
T1 construct: resting homodimer; oligomerizes with GTP/GMPPCP; modelled residues 22-1093

[2] = molecular target: T2, IcmF (isobutyryl-CoA mutase fused) (Cupriavidus metallidurans, UniProt Q1LRY0); assay: negative stain EM of oligomers; assay type: binding; details: 500 μM GMPPNP; pH 8; with hydroxocobalamin or photolysed AdoCbl; weaker oligomerization agonist than GMPPCP
T2 construct: resting homodimer; oligomerizes with GTP/GMPPCP; modelled residues 22-1093
T2 sequence (Q1LRY0 1-1093): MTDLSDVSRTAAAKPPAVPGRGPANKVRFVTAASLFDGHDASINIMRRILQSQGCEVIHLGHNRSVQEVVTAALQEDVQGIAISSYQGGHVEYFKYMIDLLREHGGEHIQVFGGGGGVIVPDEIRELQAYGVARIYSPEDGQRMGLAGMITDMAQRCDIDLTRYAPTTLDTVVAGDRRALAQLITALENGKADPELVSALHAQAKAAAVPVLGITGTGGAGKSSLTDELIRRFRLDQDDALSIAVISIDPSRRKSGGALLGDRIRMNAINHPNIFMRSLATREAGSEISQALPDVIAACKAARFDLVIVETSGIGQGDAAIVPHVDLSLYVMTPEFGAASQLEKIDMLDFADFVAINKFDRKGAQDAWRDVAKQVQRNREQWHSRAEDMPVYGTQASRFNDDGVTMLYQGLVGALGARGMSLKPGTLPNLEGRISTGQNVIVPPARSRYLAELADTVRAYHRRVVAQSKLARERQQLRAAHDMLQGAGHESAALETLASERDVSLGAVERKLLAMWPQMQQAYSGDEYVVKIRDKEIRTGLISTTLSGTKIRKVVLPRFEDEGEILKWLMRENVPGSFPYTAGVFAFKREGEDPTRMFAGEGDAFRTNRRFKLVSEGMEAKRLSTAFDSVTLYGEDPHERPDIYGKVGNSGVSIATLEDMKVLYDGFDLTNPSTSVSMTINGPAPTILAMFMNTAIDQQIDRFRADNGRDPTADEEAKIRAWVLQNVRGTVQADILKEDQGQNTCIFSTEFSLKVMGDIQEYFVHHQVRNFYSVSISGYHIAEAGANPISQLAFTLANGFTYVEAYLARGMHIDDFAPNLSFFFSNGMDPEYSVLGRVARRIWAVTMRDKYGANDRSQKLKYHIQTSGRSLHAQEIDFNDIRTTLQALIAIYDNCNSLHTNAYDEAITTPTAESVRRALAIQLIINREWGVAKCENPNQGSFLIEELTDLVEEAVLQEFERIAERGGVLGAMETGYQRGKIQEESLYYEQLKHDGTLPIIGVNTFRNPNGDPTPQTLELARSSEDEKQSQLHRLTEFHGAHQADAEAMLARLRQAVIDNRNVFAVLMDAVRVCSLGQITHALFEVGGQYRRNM

purified protein = substrate: Nc1nc2c(ncn2[C@@H]2O[C@H](COP(=O)(O)OP(=O)(O)OP(=O)(O)O)[C@@H](O)[C@H]2O)c(=O)[nH]1; assay: purified protein; assay type: biochemical, Cupriavidus metallidurans; details: GTPase, 0.5 μM enzyme, 23 °C, GTP 2–1500 μM
[3] = molecular target: the molecule itself; assay: negative stain EM; 20 ng/μl wt IcmF in 20 mM Hepes pH 8, 50 mM NaCl, no nucleotide or 500 μM GDP (30 min on ice); dimer seen, dimer with dimer not seen
[4] = molecular target: the molecule itself; assay: cryo-EM structure; 2 μM Q341A IcmF, 500 μM GTP in SEC buffer; 4.6 Å reconstruction, three protomers modelled

Nc1nc2c(ncn2[C@@H]2O[C@H](COP(=O)(O)OP(=O)(O)O)[C@@H](O)[C@H]2O)c(=O)[nH]1 [GDP]
cryo-EM, 4.6 Å [1]: there was clear density for GDP at each nucleotide-binding site

Nc1nc2c(ncn2[C@@H]2O[C@H](COP(=O)(O)OP(=O)(O)NP(=O)(O)O)[C@@H](O)[C@H]2O)c(=O)[nH]1 [GMPPNP]
negative stain EM of oligomers [2]: Photolysis of AdoCbl leads to more supramolecular complex formation but not as many as in the GMPPNP + OHCbl

B1: Cupriavidus metallidurans isobutyryl-CoA mutase fused (IcmF), wild type (enzyme, UniProt Q1LRY0 1-1093, looked up)
chain: MTDLSDVSRTAAAKPPAVPGRGPANKVRFVTAASLFDGHDASINIMRRILQSQGCEVIHLGHNRSVQEVVTAALQEDVQGIAISSYQGGHVEYFKYMIDLLREHGGEHIQVFGGGGGVIVPDEIRELQAYGVARIYSPEDGQRMGLAGMITDMAQRCDIDLTRYAPTTLDTVVAGDRRALAQLITALENGKADPELVSALHAQAKAAAVPVLGITGTGGAGKSSLTDELIRRFRLDQDDALSIAVISIDPSRRKSGGALLGDRIRMNAINHPNIFMRSLATREAGSEISQALPDVIAACKAARFDLVIVETSGIGQGDAAIVPHVDLSLYVMTPEFGAASQLEKIDMLDFADFVAINKFDRKGAQDAWRDVAKQVQRNREQWHSRAEDMPVYGTQASRFNDDGVTMLYQGLVGALGARGMSLKPGTLPNLEGRISTGQNVIVPPARSRYLAELADTVRAYHRRVVAQSKLARERQQLRAAHDMLQGAGHESAALETLASERDVSLGAVERKLLAMWPQMQQAYSGDEYVVKIRDKEIRTGLISTTLSGTKIRKVVLPRFEDEGEILKWLMRENVPGSFPYTAGVFAFKREGEDPTRMFAGEGDAFRTNRRFKLVSEGMEAKRLSTAFDSVTLYGEDPHERPDIYGKVGNSGVSIATLEDMKVLYDGFDLTNPSTSVSMTINGPAPTILAMFMNTAIDQQIDRFRADNGRDPTADEEAKIRAWVLQNVRGTVQADILKEDQGQNTCIFSTEFSLKVMGDIQEYFVHHQVRNFYSVSISGYHIAEAGANPISQLAFTLANGFTYVEAYLARGMHIDDFAPNLSFFFSNGMDPEYSVLGRVARRIWAVTMRDKYGANDRSQKLKYHIQTSGRSLHAQEIDFNDIRTTLQALIAIYDNCNSLHTNAYDEAITTPTAESVRRALAIQLIINREWGVAKCENPNQGSFLIEELTDLVEEAVLQEFERIAERGGVLGAMETGYQRGKIQEESLYYEQLKHDGTLPIIGVNTFRNPNGDPTPQTLELARSSEDEKQSQLHRLTEFHGAHQADAEAMLARLRQAVIDNRNVFAVLMDAVRVCSLGQITHALFEVGGQYRRNM
notes: Isobutyryl-CoA mutase fused (IcmF) of Cupriavidus metallidurans; Resting state is a homodimer; dimers join through their G-protein domains into higher-order oligomers; The plasmid has a thrombin cleavage site after the His-tag; no cleavage is described; also called wt IcmF; cmIcmF; source: E. coli BL21 T7 Express, purified (Ni-NTA, MonoQ, SEC)
Km (purified protein): 2.4 ± 0.9 µM
Vmax (purified protein): 1.57 µM/min
kcat (purified protein): 0.0522 ± 0.003 s⁻¹
kcat/Km (purified protein): 21700 M⁻¹ s⁻¹
stoichiometry N [3]: 2

B2: Cupriavidus metallidurans isobutyryl-CoA mutase fused (IcmF), Q341A switch III variant (enzyme, UniProt Q1LRY0 1-1093, looked up)
chain: MTDLSDVSRTAAAKPPAVPGRGPANKVRFVTAASLFDGHDASINIMRRILQSQGCEVIHLGHNRSVQEVVTAALQEDVQGIAISSYQGGHVEYFKYMIDLLREHGGEHIQVFGGGGGVIVPDEIRELQAYGVARIYSPEDGQRMGLAGMITDMAQRCDIDLTRYAPTTLDTVVAGDRRALAQLITALENGKADPELVSALHAQAKAAAVPVLGITGTGGAGKSSLTDELIRRFRLDQDDALSIAVISIDPSRRKSGGALLGDRIRMNAINHPNIFMRSLATREAGSEISQALPDVIAACKAARFDLVIVETSGIGQGDAAIVPHVDLSLYVMTPEFGAASALEKIDMLDFADFVAINKFDRKGAQDAWRDVAKQVQRNREQWHSRAEDMPVYGTQASRFNDDGVTMLYQGLVGALGARGMSLKPGTLPNLEGRISTGQNVIVPPARSRYLAELADTVRAYHRRVVAQSKLARERQQLRAAHDMLQGAGHESAALETLASERDVSLGAVERKLLAMWPQMQQAYSGDEYVVKIRDKEIRTGLISTTLSGTKIRKVVLPRFEDEGEILKWLMRENVPGSFPYTAGVFAFKREGEDPTRMFAGEGDAFRTNRRFKLVSEGMEAKRLSTAFDSVTLYGEDPHERPDIYGKVGNSGVSIATLEDMKVLYDGFDLTNPSTSVSMTINGPAPTILAMFMNTAIDQQIDRFRADNGRDPTADEEAKIRAWVLQNVRGTVQADILKEDQGQNTCIFSTEFSLKVMGDIQEYFVHHQVRNFYSVSISGYHIAEAGANPISQLAFTLANGFTYVEAYLARGMHIDDFAPNLSFFFSNGMDPEYSVLGRVARRIWAVTMRDKYGANDRSQKLKYHIQTSGRSLHAQEIDFNDIRTTLQALIAIYDNCNSLHTNAYDEAITTPTAESVRRALAIQLIINREWGVAKCENPNQGSFLIEELTDLVEEAVLQEFERIAERGGVLGAMETGYQRGKIQEESLYYEQLKHDGTLPIIGVNTFRNPNGDPTPQTLELARSSEDEKQSQLHRLTEFHGAHQADAEAMLARLRQAVIDNRNVFAVLMDAVRVCSLGQITHALFEVGGQYRRNM
notes: Isobutyryl-CoA mutase fused (IcmF) of Cupriavidus metallidurans with Q341A in the switch III region of the G-protein domain; also called Q341A IcmF; source: E. coli BL21 T7 Express, purified (Ni-NTA, MonoQ, SEC)
Km (purified protein): 2.2 ± 0.8 µM
Vmax (purified protein): 0.533 µM/min
kcat (purified protein): 0.0178 ± 0.00117 s⁻¹
kcat/Km (purified protein): 8170 M⁻¹ s⁻¹
binding result [4]: binds
